{
  "source": "patent US20190216790A1",
  "about": "“Methods for Treating Pruritis” (The Regents of the University of California, priority 2016, published 2019)",
  "molecules": {"B1": {"name": "CXCL1: a neutrophil chemoattractant and natural ligand for CXCR2; the mouse homologue for human Interleukin-8 (protein, UniProt P12850 25-96, looked up)", "Growth-regulated alpha protein": "APIANELRCQCLQTMAGIHLKNIQSLKVLPSGPHCTQTEVIATLKNGREACLDPEAPLVQKIVQKMLKGVPK"}},
  "system": "mice",
  "test": "CXCL1-induced itch, subcutaneous injection in mice",
  "type": "in vivo",
  "excerpt": "CXCL1 is the mouse homologue for human Interleukin-8, which is increased in several inflammatory skin disorders including psoriasis and atopic dermatitis. […] Importantly, CXCL1-induced itch is entirely dependent on neutrophils (FIG. 1B). […] In addition, loss of TRPA1 results in reduced CXCL1 expression in skin. Blocking/ablation of the high-affinity LTB4 receptor, BLT1, also results in reduction of CXCL1-induced itch (FIG. 1C). Both LTB4 and reactive oxygen species (ROS) are produced by neutrophils and have been proposed to directly activate neurons and induce itch. It is shown here that neutrophils also play a key role in chronic itch. In a mouse model of atopic dermatitis, depletion of neutrophils during induction of itch drastically reduces itch and inflammatory responses (FIG. 1D). It is shown here that CXCL1 is increased in multiple mouse models of chronic itch, and LTB4 is increased in skin of mice with atopic dermatitis. It is proposed that neutrophils activate sensory neurons through the ion channel TRPA1 in a CXCL1/BLT1/LTB4-dependent fashion (FIG. 1E).\nFIG. 1A-1E. […] (D) Depletion of neutrophils in a mouse model of atopic dermatitis greatly reduces itch. (E) Model showing proposed interactions. Atopic dermatitis results in increased levels of IL8 (humans) or CXCL1 (mice) that recruits neutrophils. Neutrophils activate sensory neurons to promote itch in a TRPA1 and BLT1-dependent manner. For all data, one-way ANOVA was performed with a Tukey-Kramer post hoc statistical analysis. Tukey-Kramer values are reported and only p<0.05 were considered significant; **=p<0.005; ***=p<0.0005; n.s.=not significant.",
  "note": "Entries after “also recorded” stand apart in the source; their conditions may differ.",
  "data": [
    {"molecule": "B1", "values": [
      {"measurement": "CXCL1-induced itch", "setting": "depletion of neutrophils (FIG. 1B)", "value": "abolishes CXCL1-induced itch"},
      {"measurement": "itch", "setting": "injected subcutaneously in mice (FIG. 1A)", "value": "robustly induces itch; also recorded: induces robust itch"},
      {"measurement": "itch responses to CXCL1", "setting": "mice lacking TRPA1 (FIG. 1A)", "value": "reduced itch responses"},
      {"measurement": "itch responses to CXCL1 injection", "setting": "mice lacking the LTB4 receptor (BLT1) (FIG. 1C)", "value": "reduced itch responses"}
    ]}
  ]
}
